Results: article PMC2853112

Each binder was assayed against T1, MjNep1 (Methanocaldococcus jannaschii, UniProt Q57977 1-205) (assay: fluorescence quenching).
T1 sequence (Q57977 whole entry): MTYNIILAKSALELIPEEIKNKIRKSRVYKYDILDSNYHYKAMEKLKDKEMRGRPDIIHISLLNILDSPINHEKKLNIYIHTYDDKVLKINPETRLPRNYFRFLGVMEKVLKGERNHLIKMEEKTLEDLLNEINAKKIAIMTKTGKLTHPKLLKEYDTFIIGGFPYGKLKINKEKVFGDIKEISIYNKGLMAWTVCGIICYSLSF

In order of falling Kd:
1. GGAUUCAAC (ssRNA) [RNA 3]  1650 ± 380 nM
2. UUCAACGC (ssRNA) [RNA 4]  77 ± 27 nM
3. GAUUCAACGCC (ssRNA, pseudouridine at position 4 (nt 914)) [RNA 8]  11 ± 4 nM
4. UUCAACGCC (ssRNA) [RNA 5]  8 ± 5 nM
5. UCAACGCC (ssRNA, pseudouridine at position 1 (nt 914)) [RNA 12]  7 ± 2 nM
6. GGAUUCAACGCC (ssRNA) [RNA 6]  7 ± 2 nM
7. UUGGAUUCAACGCCGG (ssRNA) [RNA 7 (complete hairpin loop 35)]  3 ± 1 nM
8. GAUUCAACGCC (ssRNA, pseudouridine at position 3 (nt 913)) [RNA 9]  2 ± 1 nM

Each binder was assayed against T1, MjNep1 (assay: NMR 15N-HSQC titration).

For UUCAAC (ssRNA) [RNA 1], the Kd was over 1000 nM.
